# From IntAct's records for PubMed 22184064
# Biological target: CCNY, Q8ND76-1
# Sequence (Q8ND76 whole entry): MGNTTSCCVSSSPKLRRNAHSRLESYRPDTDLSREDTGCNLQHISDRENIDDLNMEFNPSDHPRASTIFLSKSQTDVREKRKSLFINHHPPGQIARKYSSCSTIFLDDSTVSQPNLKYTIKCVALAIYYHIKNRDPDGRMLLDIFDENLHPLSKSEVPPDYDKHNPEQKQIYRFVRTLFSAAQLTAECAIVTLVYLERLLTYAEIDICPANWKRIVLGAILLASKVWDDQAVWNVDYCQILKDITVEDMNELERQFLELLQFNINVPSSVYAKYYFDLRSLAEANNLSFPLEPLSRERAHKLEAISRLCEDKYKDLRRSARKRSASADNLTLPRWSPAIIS
# Chain of Cyclin-dependent kinase 16 (Homo sapiens), Q00536 I209T (Q00536 whole entry I209T): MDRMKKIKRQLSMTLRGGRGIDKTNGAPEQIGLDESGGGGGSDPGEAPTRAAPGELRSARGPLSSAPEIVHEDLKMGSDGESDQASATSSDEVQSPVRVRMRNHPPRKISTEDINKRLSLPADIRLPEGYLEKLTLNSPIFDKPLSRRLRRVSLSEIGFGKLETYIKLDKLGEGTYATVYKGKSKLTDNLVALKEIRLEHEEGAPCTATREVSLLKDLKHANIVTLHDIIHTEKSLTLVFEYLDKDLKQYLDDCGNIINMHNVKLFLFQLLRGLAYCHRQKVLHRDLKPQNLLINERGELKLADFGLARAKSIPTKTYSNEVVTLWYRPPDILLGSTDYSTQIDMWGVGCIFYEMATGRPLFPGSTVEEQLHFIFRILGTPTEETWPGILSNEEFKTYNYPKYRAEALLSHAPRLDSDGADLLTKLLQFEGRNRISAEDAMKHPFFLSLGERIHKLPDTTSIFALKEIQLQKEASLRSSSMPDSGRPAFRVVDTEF
# Chain of Cyclin-dependent kinase 16 (Homo sapiens), Q00536 S153A (Q00536 whole entry S153A): as the sequence (Q00536 whole entry I209T) above, with S153A, T209I counted along it
# Chain of Cyclin-dependent kinase 16 (Homo sapiens), Q00536 S119A (Q00536 whole entry S119A): as the sequence (Q00536 whole entry I209T) above, with S119A, T209I counted along it
# Chain of Cyclin-dependent kinase 16 (Homo sapiens), Q00536 K216E (Q00536 whole entry K216E): as the sequence (Q00536 whole entry I209T) above, with T209I, K216E counted along it
# Chain of Cyclin-dependent kinase 16 (Homo sapiens), Q00536 G158D (Q00536 whole entry G158D): as the sequence (Q00536 whole entry I209T) above, with G158D, T209I counted along it
# Chain of Cyclin-dependent kinase 16 (Homo sapiens), Q00536 S153D (Q00536 whole entry S153D): as the sequence (Q00536 whole entry I209T) above, with S153D, T209I counted along it
row,effect of a mutation on the interaction,Substance
1,disrupting interaction strength,"Cyclin-dependent kinase 16 (Homo sapiens), Q00536 I209T"
2,disrupting interaction strength,"Cyclin-dependent kinase 16 (Homo sapiens), Q00536 K216E"

# Second part, the substance before the results:
row,Substance,effect of a mutation on the interaction
1,"Cyclin-dependent kinase 16 (Homo sapiens), Q00536 G158D",disrupting interaction strength
2,"Cyclin-dependent kinase 16 (Homo sapiens), Q00536 S119A",disrupting interaction strength
3,"Cyclin-dependent kinase 16 (Homo sapiens), Q00536 S153A",increasing interaction strength
4,"Cyclin-dependent kinase 16 (Homo sapiens), Q00536 S153D",disrupting interaction strength
